Biological target: EPHB2 (UniProt P29323)
Test: phosphorylation enrichment, bacterial display (enrichment ratio); higher = better substrate or ligand; peptides without Tyr show the background
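For SH2 binding enrichment of the phosphorylated peptide, bacterial display in this document: peptide library displayed on the E. coli surface as eCPX fusions, selected cells deep-sequenced, score is each peptide's frequency after selection divided by its frequency in the input.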
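For phosphorylation enrichment, bacterial display in this document: 11-residue human phosphosite peptides and single-mutation variants displayed on the E. coli surface, counted by deep sequencing, each peptide's frequency after selection divided by its frequency in the unselected input library; frequency after pTyr selection over input frequency; kinase dosed for 20-30% of maximal phosphorylation in three min.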

Sequence of EPHB2 (P29323 whole entry, looked up): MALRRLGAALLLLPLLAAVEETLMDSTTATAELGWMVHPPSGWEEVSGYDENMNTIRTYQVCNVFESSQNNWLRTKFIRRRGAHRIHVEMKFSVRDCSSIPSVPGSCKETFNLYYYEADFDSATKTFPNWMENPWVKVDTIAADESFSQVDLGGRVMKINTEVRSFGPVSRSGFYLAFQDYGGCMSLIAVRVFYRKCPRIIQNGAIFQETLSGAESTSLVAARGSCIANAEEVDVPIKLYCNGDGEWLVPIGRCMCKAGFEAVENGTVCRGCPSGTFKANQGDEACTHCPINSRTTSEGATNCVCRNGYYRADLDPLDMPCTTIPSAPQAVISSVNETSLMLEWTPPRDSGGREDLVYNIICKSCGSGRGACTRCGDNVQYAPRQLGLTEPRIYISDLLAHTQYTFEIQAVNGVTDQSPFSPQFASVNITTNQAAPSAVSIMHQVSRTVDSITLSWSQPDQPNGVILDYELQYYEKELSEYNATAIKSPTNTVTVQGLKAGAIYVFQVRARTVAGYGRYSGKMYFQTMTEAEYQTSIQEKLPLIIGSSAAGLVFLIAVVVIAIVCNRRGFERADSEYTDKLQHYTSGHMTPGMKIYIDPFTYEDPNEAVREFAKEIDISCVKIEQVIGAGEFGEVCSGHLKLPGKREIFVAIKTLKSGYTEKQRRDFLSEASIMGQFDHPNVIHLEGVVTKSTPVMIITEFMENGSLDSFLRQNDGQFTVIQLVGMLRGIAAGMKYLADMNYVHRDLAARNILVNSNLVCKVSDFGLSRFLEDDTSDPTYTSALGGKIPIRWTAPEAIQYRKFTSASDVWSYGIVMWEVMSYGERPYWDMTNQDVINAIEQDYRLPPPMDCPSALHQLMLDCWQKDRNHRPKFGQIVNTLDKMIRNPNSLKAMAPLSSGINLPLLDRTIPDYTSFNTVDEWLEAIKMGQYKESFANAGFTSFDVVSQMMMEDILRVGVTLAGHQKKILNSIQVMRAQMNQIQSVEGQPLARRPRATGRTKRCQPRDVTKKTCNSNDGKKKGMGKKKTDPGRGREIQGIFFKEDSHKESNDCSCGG

Going from LQTYRYHGLSM [PDHA1_Y289_H292L] to ADCRYYAFPQM [GAMT_Y223], the phosphorylation enrichment rises from 0.746 to 10.8.

Compared with SQSAKYDMAED [TTC21B_Y1213_I1208S], MFNPFYGLFEF [NEDD4L_Y680_YF] is lower in phosphorylation enrichment: 0.635 for the first, 0.549 for the second.

Going from STDDGYIDLQF [TMEM230_Y29] to LTFPDYLPCSV [SAG_Y129], the phosphorylation enrichment rises from 0.472 to 0.601.

Compared with PSPTRYSLSPS [RANBP2_Y785], IFGVSYGEYRY [CFTR_Y512_D513G] is lower in phosphorylation enrichment: 0.856 for the first, 0.691 for the second.

Compared with RAVLLYEFVGK [NATD1_Y45_YF], VECHPYFTQPK [AKR1D1_Y199] is lower in phosphorylation enrichment: 27.1 for the first, 0.517 for the second.

Going from LVSCTYQLATG [FGFR2_Y608_R612T] to MARDIYRASYY [ALK_Y1278], the phosphorylation enrichment falls from 0.668 to 0.439.

Going from SFDLDYDSVQP [MYC_Y16_N11S_YF] to SASSSYSRSRS [SRRM4_Y549_R547S], the phosphorylation enrichment falls from 0.911 to 0.487.

First: TTGGFYSYGGG [KRT24_Y120_A115T]
Second: GADDSYYTVRS [ZAP70_Y492_A495V]
The phosphorylation enrichment of the first is higher: 1.1 for the first, 0.548 for the second.

Biological target: FGFR1 (UniProt P11362)
Sequence (P11362 whole entry, looked up): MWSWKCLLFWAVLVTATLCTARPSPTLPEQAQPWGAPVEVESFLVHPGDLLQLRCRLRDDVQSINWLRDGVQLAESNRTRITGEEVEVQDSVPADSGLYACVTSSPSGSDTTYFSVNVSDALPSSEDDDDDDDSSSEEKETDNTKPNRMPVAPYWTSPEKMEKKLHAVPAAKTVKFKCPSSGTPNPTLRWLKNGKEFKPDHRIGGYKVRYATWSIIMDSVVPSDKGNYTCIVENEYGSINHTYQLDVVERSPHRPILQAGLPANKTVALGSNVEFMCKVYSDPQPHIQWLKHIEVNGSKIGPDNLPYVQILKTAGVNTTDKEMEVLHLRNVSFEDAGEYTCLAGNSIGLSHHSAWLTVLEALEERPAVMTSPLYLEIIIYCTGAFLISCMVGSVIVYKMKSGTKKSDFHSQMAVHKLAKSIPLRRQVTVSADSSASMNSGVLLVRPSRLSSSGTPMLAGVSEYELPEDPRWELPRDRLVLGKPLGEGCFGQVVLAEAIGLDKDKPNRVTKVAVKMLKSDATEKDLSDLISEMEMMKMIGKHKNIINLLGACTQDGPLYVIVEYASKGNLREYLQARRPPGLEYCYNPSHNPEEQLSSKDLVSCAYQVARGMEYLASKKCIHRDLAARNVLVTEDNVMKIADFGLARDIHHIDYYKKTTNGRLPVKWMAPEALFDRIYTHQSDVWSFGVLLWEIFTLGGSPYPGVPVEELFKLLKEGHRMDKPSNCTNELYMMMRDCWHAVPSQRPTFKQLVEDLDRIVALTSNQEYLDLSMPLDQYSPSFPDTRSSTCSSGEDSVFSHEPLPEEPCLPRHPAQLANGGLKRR
Test: as above

Compared with LQTYRYHGLSM [PDHA1_Y289_H292L], ADCRYYAFPQM [GAMT_Y223] is higher in phosphorylation enrichment: 0.749 for the first, 11 for the second.

Going from SQSAKYDMAED [TTC21B_Y1213_I1208S] to MFNPFYGLFEF [NEDD4L_Y680_YF], the phosphorylation enrichment falls from 0.634 to 0.602.

Going from STDDGYIDLQF [TMEM230_Y29] to LTFPDYLPCSV [SAG_Y129], the phosphorylation enrichment rises from 1.01 to 3.74.

Compared with PSPTRYSLSPS [RANBP2_Y785], IFGVSYGEYRY [CFTR_Y512_D513G] is higher in phosphorylation enrichment: 0.525 for the first, 0.603 for the second.

First: RAVLLYEFVGK [NATD1_Y45_YF]
Second: VECHPYFTQPK [AKR1D1_Y199]
The phosphorylation enrichment of the first is higher: 2.12 for the first, 0.591 for the second.

Going from LVSCTYQLATG [FGFR2_Y608_R612T] to MARDIYRASYY [ALK_Y1278], the phosphorylation enrichment rises from 0.559 to 0.624.

Compared with SFDLDYDSVQP [MYC_Y16_N11S_YF], SASSSYSRSRS [SRRM4_Y549_R547S] is lower in phosphorylation enrichment: 0.674 for the first, 0.378 for the second.

Going from TTGGFYSYGGG [KRT24_Y120_A115T] to GADDSYYTVRS [ZAP70_Y492_A495V], the phosphorylation enrichment rises from 0.528 to 5.51.

Test system: c-Src
Test: as above

Going from LQTYRYHGLSM [PDHA1_Y289_H292L] to ADCRYYAFPQM [GAMT_Y223], the phosphorylation enrichment rises from 0.471 to 3.76.

First: SQSAKYDMAED [TTC21B_Y1213_I1208S]
Second: MFNPFYGLFEF [NEDD4L_Y680_YF]
The phosphorylation enrichment of the first is lower: 0.566 for the first, 5.41 for the second.

Compared with STDDGYIDLQF [TMEM230_Y29], LTFPDYLPCSV [SAG_Y129] is higher in phosphorylation enrichment: 0.488 for the first, 0.535 for the second.

Going from PSPTRYSLSPS [RANBP2_Y785] to IFGVSYGEYRY [CFTR_Y512_D513G], the phosphorylation enrichment rises from 0.597 to 5.62.

Compared with RAVLLYEFVGK [NATD1_Y45_YF], VECHPYFTQPK [AKR1D1_Y199] is lower in phosphorylation enrichment: 5.67 for the first, 0.779 for the second.

Compared with LVSCTYQLATG [FGFR2_Y608_R612T], MARDIYRASYY [ALK_Y1278] is higher in phosphorylation enrichment: 0.952 for the first, 1.58 for the second.

Compared with SFDLDYDSVQP [MYC_Y16_N11S_YF], SASSSYSRSRS [SRRM4_Y549_R547S] is lower in phosphorylation enrichment: 0.924 for the first, 0.432 for the second.

Compared with TTGGFYSYGGG [KRT24_Y120_A115T], GADDSYYTVRS [ZAP70_Y492_A495V] is higher in phosphorylation enrichment: 1.25 for the first, 1.65 for the second.

Test system: Fer (mouse)
Test: as above

Going from LQTYRYHGLSM [PDHA1_Y289_H292L] to ADCRYYAFPQM [GAMT_Y223], the phosphorylation enrichment rises from 0.572 to 8.45.

Compared with SQSAKYDMAED [TTC21B_Y1213_I1208S], MFNPFYGLFEF [NEDD4L_Y680_YF] is higher in phosphorylation enrichment: 0.509 for the first, 5.44 for the second.

Going from STDDGYIDLQF [TMEM230_Y29] to LTFPDYLPCSV [SAG_Y129], the phosphorylation enrichment rises from 0.584 to 0.715.

First: PSPTRYSLSPS [RANBP2_Y785]
Second: IFGVSYGEYRY [CFTR_Y512_D513G]
The phosphorylation enrichment of the first is lower: 0.436 for the first, 0.736 for the second.

First: RAVLLYEFVGK [NATD1_Y45_YF]
Second: VECHPYFTQPK [AKR1D1_Y199]
The phosphorylation enrichment of the first is higher: 14.9 for the first, 0.421 for the second.

Going from LVSCTYQLATG [FGFR2_Y608_R612T] to MARDIYRASYY [ALK_Y1278], the phosphorylation enrichment falls from 0.615 to 0.408.

Compared with SFDLDYDSVQP [MYC_Y16_N11S_YF], SASSSYSRSRS [SRRM4_Y549_R547S] is lower in phosphorylation enrichment: 0.748 for the first, 0.386 for the second.

First: TTGGFYSYGGG [KRT24_Y120_A115T]
Second: GADDSYYTVRS [ZAP70_Y492_A495V]
The phosphorylation enrichment of the first is higher: 4.54 for the first, 0.644 for the second.

Biological target: MERTK (UniProt Q12866)
Sequence (Q12866 whole entry, looked up): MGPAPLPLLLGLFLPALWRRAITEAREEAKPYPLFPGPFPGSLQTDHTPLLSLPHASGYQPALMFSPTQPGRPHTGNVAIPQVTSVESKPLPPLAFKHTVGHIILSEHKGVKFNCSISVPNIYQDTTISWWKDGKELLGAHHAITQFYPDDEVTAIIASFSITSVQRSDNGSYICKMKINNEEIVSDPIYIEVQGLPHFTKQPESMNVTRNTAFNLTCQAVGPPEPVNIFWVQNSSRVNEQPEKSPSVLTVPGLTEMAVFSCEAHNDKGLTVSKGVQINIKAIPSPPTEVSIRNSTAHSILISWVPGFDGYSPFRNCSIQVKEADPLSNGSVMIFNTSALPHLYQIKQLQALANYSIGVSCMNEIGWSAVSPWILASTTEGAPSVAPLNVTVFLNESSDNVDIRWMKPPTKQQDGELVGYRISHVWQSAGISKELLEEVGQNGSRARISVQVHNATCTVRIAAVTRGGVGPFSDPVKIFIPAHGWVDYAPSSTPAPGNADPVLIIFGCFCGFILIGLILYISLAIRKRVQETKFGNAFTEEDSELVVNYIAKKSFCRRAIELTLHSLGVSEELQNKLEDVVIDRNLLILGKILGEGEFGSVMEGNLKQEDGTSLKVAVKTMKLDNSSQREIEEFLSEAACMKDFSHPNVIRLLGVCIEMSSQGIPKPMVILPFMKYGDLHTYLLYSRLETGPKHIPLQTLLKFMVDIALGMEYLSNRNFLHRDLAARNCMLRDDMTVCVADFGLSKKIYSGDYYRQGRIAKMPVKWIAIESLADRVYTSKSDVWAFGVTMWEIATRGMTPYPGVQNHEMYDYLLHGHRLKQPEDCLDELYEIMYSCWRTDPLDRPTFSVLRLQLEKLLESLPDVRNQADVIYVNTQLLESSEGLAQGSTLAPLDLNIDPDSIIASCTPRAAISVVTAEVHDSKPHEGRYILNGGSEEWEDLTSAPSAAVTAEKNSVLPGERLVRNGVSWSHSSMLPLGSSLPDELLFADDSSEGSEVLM
Test: as above

First: LQTYRYHGLSM [PDHA1_Y289_H292L]
Second: ADCRYYAFPQM [GAMT_Y223]
The phosphorylation enrichment of the first is lower: 0.443 for the first, 9.72 for the second.

Compared with SQSAKYDMAED [TTC21B_Y1213_I1208S], MFNPFYGLFEF [NEDD4L_Y680_YF] is higher in phosphorylation enrichment: 0.441 for the first, 5.83 for the second.

Compared with STDDGYIDLQF [TMEM230_Y29], LTFPDYLPCSV [SAG_Y129] is lower in phosphorylation enrichment: 0.513 for the first, 0.463 for the second.

First: PSPTRYSLSPS [RANBP2_Y785]
Second: IFGVSYGEYRY [CFTR_Y512_D513G]
The phosphorylation enrichment of the first is higher: 0.56 for the first, 0.537 for the second.

Compared with RAVLLYEFVGK [NATD1_Y45_YF], VECHPYFTQPK [AKR1D1_Y199] is lower in phosphorylation enrichment: 12.7 for the first, 0.371 for the second.

First: LVSCTYQLATG [FGFR2_Y608_R612T]
Second: MARDIYRASYY [ALK_Y1278]
The phosphorylation enrichment of the first is lower: 0.546 for the first, 0.673 for the second.

Going from SFDLDYDSVQP [MYC_Y16_N11S_YF] to SASSSYSRSRS [SRRM4_Y549_R547S], the phosphorylation enrichment falls from 0.586 to 0.447.

First: TTGGFYSYGGG [KRT24_Y120_A115T]
Second: GADDSYYTVRS [ZAP70_Y492_A495V]
The phosphorylation enrichment of the first is higher: 13.9 for the first, 0.676 for the second.

Biological target: SHP2-C SH2
Test: SH2 binding enrichment of the phosphorylated peptide, bacterial display (enrichment ratio); higher = better substrate or ligand; peptides without Tyr show the background

Going from LQTYRYHGLSM [PDHA1_Y289_H292L] to ADCRYYAFPQM [GAMT_Y223], the SH2 binding enrichment falls from 0.815 to 0.656.

Going from SQSAKYDMAED [TTC21B_Y1213_I1208S] to MFNPFYGLFEF [NEDD4L_Y680_YF], the SH2 binding enrichment rises from 0.545 to 1.5.

Compared with STDDGYIDLQF [TMEM230_Y29], LTFPDYLPCSV [SAG_Y129] is lower in SH2 binding enrichment: 0.764 for the first, 0.739 for the second.

Compared with PSPTRYSLSPS [RANBP2_Y785], IFGVSYGEYRY [CFTR_Y512_D513G] is higher in SH2 binding enrichment: 0.454 for the first, 1.1 for the second.

Going from RAVLLYEFVGK [NATD1_Y45_YF] to VECHPYFTQPK [AKR1D1_Y199], the SH2 binding enrichment falls from 1.5 to 0.637.

Compared with LVSCTYQLATG [FGFR2_Y608_R612T], MARDIYRASYY [ALK_Y1278] is lower in SH2 binding enrichment: 0.739 for the first, 0.708 for the second.

First: SFDLDYDSVQP [MYC_Y16_N11S_YF]
Second: SASSSYSRSRS [SRRM4_Y549_R547S]
The SH2 binding enrichment of the first is lower: 0.633 for the first, 0.638 for the second.

Compared with TTGGFYSYGGG [KRT24_Y120_A115T], GADDSYYTVRS [ZAP70_Y492_A495V] is lower in SH2 binding enrichment: 0.778 for the first, 0.697 for the second.

Biological target: Grb2 SH2 (UniProt P62993)
Sequence (P62993 whole entry, looked up): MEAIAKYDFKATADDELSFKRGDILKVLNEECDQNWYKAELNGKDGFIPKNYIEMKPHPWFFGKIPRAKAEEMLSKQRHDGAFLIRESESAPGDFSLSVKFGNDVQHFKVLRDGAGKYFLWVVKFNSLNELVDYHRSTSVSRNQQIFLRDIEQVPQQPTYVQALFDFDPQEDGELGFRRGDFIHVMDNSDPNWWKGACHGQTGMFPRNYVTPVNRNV
Test: as above

Compared with LQTYRYHGLSM [PDHA1_Y289_H292L], ADCRYYAFPQM [GAMT_Y223] is lower in SH2 binding enrichment: 1.25 for the first, 0.862 for the second.

First: SQSAKYDMAED [TTC21B_Y1213_I1208S]
Second: MFNPFYGLFEF [NEDD4L_Y680_YF]
The SH2 binding enrichment of the first is lower: 0.839 for the first, 1.56 for the second.

Going from STDDGYIDLQF [TMEM230_Y29] to LTFPDYLPCSV [SAG_Y129], the SH2 binding enrichment falls from 0.834 to 0.748.

First: PSPTRYSLSPS [RANBP2_Y785]
Second: IFGVSYGEYRY [CFTR_Y512_D513G]
The SH2 binding enrichment of the first is lower: 0.759 for the first, 1.05 for the second.

First: RAVLLYEFVGK [NATD1_Y45_YF]
Second: VECHPYFTQPK [AKR1D1_Y199]
The SH2 binding enrichment of the first is higher: 1.57 for the first, 0.765 for the second.

Going from LVSCTYQLATG [FGFR2_Y608_R612T] to MARDIYRASYY [ALK_Y1278], the SH2 binding enrichment rises from 0.729 to 0.877.

Going from SFDLDYDSVQP [MYC_Y16_N11S_YF] to SASSSYSRSRS [SRRM4_Y549_R547S], the SH2 binding enrichment rises from 0.749 to 0.967.

Going from TTGGFYSYGGG [KRT24_Y120_A115T] to GADDSYYTVRS [ZAP70_Y492_A495V], the SH2 binding enrichment rises from 0.773 to 1.62.

Biological target: c-Src SH2
Test: as above

First: LQTYRYHGLSM [PDHA1_Y289_H292L]
Second: ADCRYYAFPQM [GAMT_Y223]
The SH2 binding enrichment of the first is lower: 0.399 for the first, 1.84 for the second.

Compared with SQSAKYDMAED [TTC21B_Y1213_I1208S], MFNPFYGLFEF [NEDD4L_Y680_YF] is lower in SH2 binding enrichment: 1.22 for the first, 1.17 for the second.

Going from STDDGYIDLQF [TMEM230_Y29] to LTFPDYLPCSV [SAG_Y129], the SH2 binding enrichment falls from 0.986 to 0.472.

First: PSPTRYSLSPS [RANBP2_Y785]
Second: IFGVSYGEYRY [CFTR_Y512_D513G]
The SH2 binding enrichment of the first is lower: 0.438 for the first, 0.933 for the second.

Compared with RAVLLYEFVGK [NATD1_Y45_YF], VECHPYFTQPK [AKR1D1_Y199] is lower in SH2 binding enrichment: 0.972 for the first, 0.444 for the second.

Compared with LVSCTYQLATG [FGFR2_Y608_R612T], MARDIYRASYY [ALK_Y1278] is higher in SH2 binding enrichment: 0.456 for the first, 0.839 for the second.

Going from SFDLDYDSVQP [MYC_Y16_N11S_YF] to SASSSYSRSRS [SRRM4_Y549_R547S], the SH2 binding enrichment falls from 0.441 to 0.393.

First: TTGGFYSYGGG [KRT24_Y120_A115T]
Second: GADDSYYTVRS [ZAP70_Y492_A495V]
The SH2 binding enrichment of the first is higher: 0.945 for the first, 0.873 for the second.

Reference: the supplement of paper PMC10065799, “High-throughput profiling of sequence recognition by tyrosine kinases and SH2 domains using bacterial peptide display” (eLife, 2023)
